Target: T1, Flag-Rab11b (full length) (human, UniProt Q15907 1-218)
T1 construct: human Rab11b, full length cDNA in a modified pFastbac HT; the nucleotide state is told by the assay; also called Rab11b-GTPγS; Rab11b-GDPβS; source: Sf9, baculovirus, purified (Ni-NTA); not shown: FLAG, N-terminal, kept
T1 sequence (looked up): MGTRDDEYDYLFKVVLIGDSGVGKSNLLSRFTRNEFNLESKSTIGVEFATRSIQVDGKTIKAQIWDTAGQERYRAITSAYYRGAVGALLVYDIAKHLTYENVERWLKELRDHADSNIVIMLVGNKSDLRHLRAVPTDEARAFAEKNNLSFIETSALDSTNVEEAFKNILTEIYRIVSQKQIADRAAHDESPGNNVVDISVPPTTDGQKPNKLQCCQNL
Experiment: pull-down; GST fusion on Glutathione Sepharose 4B; Flag-Rab11b pre-treated with 5-fold excess GTPγS (30 min, 37 °C); 10 µM Rab11b, 2.5 µM Myo5b Tail, 20 µM GTPγS, 20 mM Tris-HCl pH 7.5, 150 mM NaCl, 1 mM MgCl2, 1 mM EGTA, 1 mM DTT, 0.05% Tween, 1% BSA, 4 °C, 1 h; anti-flag Western blot
Conditions: both partners purified

B1: GST-Rab11FIP3 Rab binding domain (694-756 a.a.) (domain or fragment, human, UniProt O75154 694-756, looked up)
chain: QGAKSLFSTAFSESLAAEISSVSRDELMEAIQKQEEINFRLQDYIDRIIVAIMETNPSILEVK
notes: Cloned in pET-30a with GST at the N-terminus and 6xHis at the C-terminus; also called GST-FIP3 RBD; GST-FIP3-RBD; source: E. coli BL21 (DE3), purified (Ni-NTA); not shown: GST, N-terminal, kept
- binding result: binds

— paper PMC9101030, “Myo5b Transports Fibronectin-Containing Vesicles and Facilitates FN1 Secretion from Human Pleural Mesothelial Cells” (International Journal of Molecular Sciences, 2022)
